US20170174769A1 (Regeneron, published 2017)

Experiments:
[1] = molecular target: T1, full-length human FGFR1c on HEK293/hFGFR1c/SRE-luc cells (human, UniProt P11362 22-822); test: FACS on stable HEK293 cells, 33 nM
T1 construct: amino acids 1-733 of NP_075593
Method: (§1) For the FACS analysis, HEK293 parental, HEK293/hFGFR1c, HEK293/hFGFR1c/hKLB, and HEK293/mFGFR1c/mKLB cells were dissociated and plated onto 96-well v-bottom plates at 0.5×10⁶ cells/well in 2% FBS/PBS. […] Control mAb2 was tested at a concentration of 965 nM. After primary protein incubation cells were washed and incubated with 3.75 μg/mL fluorescently conjugated secondary antibodies for 30 minutes at 4° C. Cells were filtered and analyzed on Accuri™ 6 Flow Cytometer. Unstained and secondary antibody alone controls were also tested for all cell lines. The results were analyzed using FlowJo version 9.52 software and geometric mean (Geom. Mean) of fluorescence for viable cells were determined. Geom. mean of fluorescence for each antibody was then normalized to Geom. mean of unstained cells to obtain relative binding of antibody (binding ratios) per each cell type.

[2] = molecular target: T2, human KLB and human FGFR1c co-expressed on HEK293/hKLB/hFGFR1c/SRE-luc cells (human, UniProt Q86Z14 1-1044; P11362 22-822); test: FACS on stable HEK293 cells, 33 nM
T2 construct: two receptors co-expressed on one cell line; also called KLB/FGFR1c coreceptor; FGF21R
T2 sequence (Q86Z14 whole entry, chain 1 of 2): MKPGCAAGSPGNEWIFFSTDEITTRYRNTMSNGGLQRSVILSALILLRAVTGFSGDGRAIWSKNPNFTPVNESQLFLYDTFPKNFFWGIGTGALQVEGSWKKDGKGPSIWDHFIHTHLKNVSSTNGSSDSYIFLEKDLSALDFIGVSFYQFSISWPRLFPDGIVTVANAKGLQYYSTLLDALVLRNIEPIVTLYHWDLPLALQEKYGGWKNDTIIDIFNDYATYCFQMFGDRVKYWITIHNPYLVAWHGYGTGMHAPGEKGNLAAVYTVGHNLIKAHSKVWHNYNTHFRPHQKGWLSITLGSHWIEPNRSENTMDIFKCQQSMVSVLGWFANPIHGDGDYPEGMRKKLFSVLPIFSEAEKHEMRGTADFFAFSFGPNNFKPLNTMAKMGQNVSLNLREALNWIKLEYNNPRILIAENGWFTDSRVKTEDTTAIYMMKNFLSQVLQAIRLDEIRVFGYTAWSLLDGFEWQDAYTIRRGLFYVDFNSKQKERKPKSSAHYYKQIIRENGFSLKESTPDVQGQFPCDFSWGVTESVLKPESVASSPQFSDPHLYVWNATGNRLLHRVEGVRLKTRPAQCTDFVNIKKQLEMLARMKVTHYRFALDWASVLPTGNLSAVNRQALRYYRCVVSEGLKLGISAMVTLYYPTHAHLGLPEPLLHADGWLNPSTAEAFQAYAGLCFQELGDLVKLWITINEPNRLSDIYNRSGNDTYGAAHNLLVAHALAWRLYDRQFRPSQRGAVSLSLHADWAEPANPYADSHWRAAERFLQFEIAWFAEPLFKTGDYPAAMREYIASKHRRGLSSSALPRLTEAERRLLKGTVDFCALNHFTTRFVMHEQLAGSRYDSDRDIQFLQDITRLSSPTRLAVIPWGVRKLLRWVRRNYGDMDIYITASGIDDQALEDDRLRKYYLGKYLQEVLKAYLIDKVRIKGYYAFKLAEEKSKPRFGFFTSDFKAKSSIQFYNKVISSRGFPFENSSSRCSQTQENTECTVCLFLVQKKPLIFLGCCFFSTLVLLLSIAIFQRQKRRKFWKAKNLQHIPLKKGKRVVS
T2 sequence (P11362 other isoform, or with tags, fused parts or gaps limits assumed, chain 2 of 2): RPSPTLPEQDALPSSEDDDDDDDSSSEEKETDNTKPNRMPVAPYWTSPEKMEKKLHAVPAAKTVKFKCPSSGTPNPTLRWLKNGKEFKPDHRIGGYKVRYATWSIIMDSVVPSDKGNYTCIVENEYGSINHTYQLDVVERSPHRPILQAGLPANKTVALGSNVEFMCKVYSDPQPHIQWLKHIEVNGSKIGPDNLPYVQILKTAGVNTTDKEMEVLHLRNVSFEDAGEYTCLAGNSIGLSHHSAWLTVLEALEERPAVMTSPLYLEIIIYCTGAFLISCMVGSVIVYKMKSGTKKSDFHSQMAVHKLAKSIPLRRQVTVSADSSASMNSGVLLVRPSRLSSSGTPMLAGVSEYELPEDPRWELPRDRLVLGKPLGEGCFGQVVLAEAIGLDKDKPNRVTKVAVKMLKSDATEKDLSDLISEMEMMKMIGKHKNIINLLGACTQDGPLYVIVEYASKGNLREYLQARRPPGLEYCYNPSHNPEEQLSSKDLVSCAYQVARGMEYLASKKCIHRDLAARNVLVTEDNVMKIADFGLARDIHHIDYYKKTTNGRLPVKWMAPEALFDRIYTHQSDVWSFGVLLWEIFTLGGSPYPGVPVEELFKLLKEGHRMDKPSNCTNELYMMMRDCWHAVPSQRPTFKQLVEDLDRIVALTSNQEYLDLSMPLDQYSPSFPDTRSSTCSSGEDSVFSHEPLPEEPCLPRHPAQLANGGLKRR
Method: as §1

[3] = molecular target: cell-surface human FGFR1c (amino acids 1-731 of NP_075594) with cell-surface human KLB on … (human, UniProt P11362 22-822); test: cell-based or functional assay
Chain of cell-surface human FGFR1c (amino acids 1-731 of NP_075594) with cell-surface human KLB on … (P11362 22-822, chain 1 of 2): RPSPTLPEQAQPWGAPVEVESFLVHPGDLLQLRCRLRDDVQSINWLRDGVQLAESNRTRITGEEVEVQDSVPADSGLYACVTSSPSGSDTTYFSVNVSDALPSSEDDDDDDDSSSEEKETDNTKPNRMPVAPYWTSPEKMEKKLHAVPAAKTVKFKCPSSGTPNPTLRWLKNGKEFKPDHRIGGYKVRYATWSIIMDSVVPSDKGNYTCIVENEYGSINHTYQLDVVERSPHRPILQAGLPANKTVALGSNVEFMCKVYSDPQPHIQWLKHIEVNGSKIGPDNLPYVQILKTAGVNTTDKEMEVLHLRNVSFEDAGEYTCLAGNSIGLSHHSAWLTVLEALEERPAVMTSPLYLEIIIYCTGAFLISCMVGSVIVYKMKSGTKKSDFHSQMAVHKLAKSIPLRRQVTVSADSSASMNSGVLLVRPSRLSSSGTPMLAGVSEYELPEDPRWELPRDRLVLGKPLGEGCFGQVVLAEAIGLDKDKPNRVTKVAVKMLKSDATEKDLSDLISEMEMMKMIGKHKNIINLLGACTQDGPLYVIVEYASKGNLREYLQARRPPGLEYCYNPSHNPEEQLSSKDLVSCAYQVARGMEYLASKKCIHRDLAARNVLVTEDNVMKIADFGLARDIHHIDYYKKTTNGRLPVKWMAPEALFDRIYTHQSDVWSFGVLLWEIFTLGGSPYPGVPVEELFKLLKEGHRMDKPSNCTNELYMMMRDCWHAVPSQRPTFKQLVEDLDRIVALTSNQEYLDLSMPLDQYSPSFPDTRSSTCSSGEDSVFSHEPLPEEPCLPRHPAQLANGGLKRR
Chain of cell-surface human FGFR1c (amino acids 1-731 of NP_075594) with cell-surface human KLB on … (chain, as listed by the source, chain 2 of 2): as the sequence (Q86Z14 whole entry, chain 1 of 2) above

T1 sequence (P11362 other isoform, or with tags, fused parts or gaps limits assumed): as the sequence (P11362 other isoform, or with tags, fused parts or gaps limits assumed, chain 2 of 2) above

B1: H1H8900P (antibody, V domains shown)
VH: QVQLVESGGGVVQPGRSLRLSCVASGFTFSSYGMHWVRQAPGKGLEWVAVISFDGSNKYYADSVKGRFTISRDNSKNTLYLQMNSLRPADTAVYYCAKDRSNYYYFGMDVWGQGTTVTVSS
VL: DIVMTQTPLSLPVTPGEPASISCRSSQSLLDSDDGNTYLDWYLQKPGQSPQLLIYTLSYRASGVPDRFSGSGSGTDFTLKISRVEAEDVGVYYCMQRIEFPLTFGGGTKVEIK
notes: H1H Fc prefix (human Fc)
[1]
  MFI Ratio to unstained cells: 2 fold
[2]
  MFI Ratio to unstained cells: 2 fold
[3]
  % Activation: 0.7%
  EC50, SRE-luc activation: 47 nM
